A short description of test [1]: Glucose release in LacGL1-cellulase (Cellic CTec1, CTec2) catalyzed hydrolysis of STEX SCB. It counts as biochemical. Here is the method: FIG. 11. A graphical comparison of yields of released glucose over time in LacGL1-Cellic® CTec1 catalyzed hydrolysis STEX-SCB at different pH and temperatures. The cellulase preparation is Cellic® CTec1 (CC1) and laccase was Ganoderma lucidum LacGL1 expressed in Pichia pastoris X-33. CC1 and LacGL1 were added in E/S ratio of 0.064%, and 0.4% (w/w), respectively.
FIG. 12. A graphical comparison of the yields of released glucose over time in LacGL1-Cellic® CTec2 catalyzed hydrolysis of STEX-SCB at different pH and temperatures. The cellulase preparation is Cellic® CTec2 (CC2) and laccase was Ganoderma lucidum LacGL1 expressed in Pichia pastoris X-33. […] and LacGL1 were added in E/S ratio of 0.064%, and 0.4% (w/w), respectively.
5% (w/v) dry matter of pretreated SCB (STEX SCB) was evaluated in 0.1 M citrate-phosphate buffer at pH 4.7 and 40° C. (optimal for the LacGL1 laccase) or pH 5.1 and 50° C. (optimal for the cellulase preparations), respectively. The commercially available cellulase cocktail preparations: Cellic® CTec1 and Cellic® CTec2 (0.064% Enzyme/Substrate ratio (E/S), w/w; Novozymes, Bagsværd, Denmark) were used with the combination of the LacGL1 laccase (0.4% E/S, w/w). The hydrolysis reactions were collected after 0, 1, 3, 5, 16, and 24 hours and stopped by incubation at 99° C. for 15 min. The samples were then centrifuged at 10.000 rpm for 2 min., the supernatants were filtered through 0.2 μm filter and the yields of released glucose were quantified using the D-glucose-HK kit (Megazyme, Denmark). The glucose yields released over time were corrected for the glucose content of the hydrolysis sample at time 0. The E/S dosage was based on the total protein concentration used. The protein quantification was performed using the Pierce BCA (BiCinchoninic Acid) protein assay kit microplate procedure according to manufacturer's instructions (Thermo Fisher Scientific, Rockford, US) using Bovine serum albumin (BSA) was used as a standard, as described before (Silva et al. 2011). The Cellic® CTec1 (CC1) and Cellic® CTec2 (CC2), cellulase preparations, are based on the Trichoderma reesei cellulase complex (exo-glucanase, endo-glucanase, and β-glucosidase activities) with additional β-glucosidase and glycoside hydrolase family 61 hydrolyse boosting proteins (Harris 2010). All determinations of the enzymatic hydrolysis samples were performed in duplicates.
Release of glucose during cellulose hydrolysis of STEX SCB is enhanced by the addition of LacGL1 laccase in a dosage dependent manner (data not shown). The combined laccase plus cellulase treatment of STEX SCB were performed at two different conditions: Firstly, at […], 40° C. which is optimal for the LacGL1 laccase (as previously shown from MODDE pH-temp.-activity model, FIG. 8 and thermal stability plots, FIGS. 9, 10), which are slightly less optimal for cellulases; and secondly at 50° C. and pH 5.1, which are the golden standard conditions for optimal performance of CC1 and CC2. From the MODDE data, […]: the type of the cellulase preparation, the addition of LacGL1, the temperature, and the pH of the reaction (FIG. 11, 12). Overall, the highest rate of STEX SCB hydrolysis, considering all of the aforementioned factors, was obtained for the combination of LacGL1-Cellic® CTec2 at pH 5.1 and 50° C. […] The higher pH and temperature enhanced LacGL1-CC2 catalyzed hydrolysis by 12% (FIG. 12).

Test [2] can be described thus: Laccase-cellulase catalyzed hydrolysis of pretreated biomass, glucose release. The format is biochemical. The note with it: with cellulase 1 or 2, pH 5.1, 50° C., 30 hour. The method, then: FIG. 15. A graphical comparison of glucose released over time during hydrolysis of pre-treated wheaty straw at pH 5.1 and 50° C. by each of commercial enzyme preparations Cellulase 1 (CC2) [A]; or Cellulase 2 [B], either alone, or in combination with a laccase enzyme; the tested laccases being respectively LacGL1 and GLlac1 (LacJooSS; Q9HG17) derived from G. lucidum; and laccases derived from Agaricus bisporus (Sigma 40452), Pleurotus ostreatus (Sigma 75117) and, Trametes versicolor (Sigma 51639).
The commercial fungal laccases were purchased as lyophilized protein samples from Sigma Aldrich. A solution of each of the above 5 laccases was prepared in a citric buffer containing 20% of glycerol (pH 5.1, 100 mM).
Two different commercially available cellulase enzyme preparations used in the comparative study were “Cellulase 1” and “Cellulase 2”, which were tested in combination with each of the laccases listed above.
The three different types of pretreated biomass used in the comparative study were sugarcane bagasse, barley straw and wheat straw. The source and pre-treatment of the sugarcane bagasse by steam explosion was as set out in Example 9. […] The composition of the dry and the pretreated biomass were determined according to the US National Renewable Energy Laboratory (NREL) procedures (Sluiter et al, 2010).
The laccase-cellulase catalyzed hydrolysis of the pretreated biomass samples to release glucose was performed as follows: Hydrolysis of 5% (w/v) samples of pretreated sugarcane bagasse, barley straw, and wheat straw biomass were assayed using an Enzyme/Substrate (E/S) ratio of 0.064% w/w for laccases and of 0.4% w/w for each commercial cellulase preparation in each hydrolysis reaction. The E/S dosage was based on the total protein concentration used, as determined using Pierce BCA (BiCinchoninic Acid) protein assay kit microplate procedure according to manufacturer's instruction (Thermo Fisher Scientific, Rockford, US). […]
Laccase and cellulase-mediated hydrolysis of the 3 biomass forms, measured as glucose release, are shown graphically in FIGS. 13, 14 and 15. […]

B1: LacGL1: Fungal laccase from Ganoderma lucidum CBS229.93 (SEQ ID NO: 5/9), recombinantly expressed in Pichia pastoris X-33 (protein, listed as Ganoderma lucidum)
chain: GIGPKTDLTISNADVAPDGYTRAAVVVNGVFPAPLITGNKGDRFQLNVIDQMTNHTMLKSTSIHWHGFFQKGTNWADGPAFINQCPISSGHSFLYDFQVPDQAGTFWYHSHLSTQYCDGLRGPFVVYDPKDPLKKLYDIDDDSTVITLTDWYHVAARLGPRFPLGSDSTLINGLGRSTTNVTADLAVINVTQGKRYRFRLVSLSCDPNYTFSIDDHNMTVIEADGIETQPVTVNAIQIFSAQRYSFVLTANQTIDNYWIRANPNFGNVGFTDGINSAILRYAGADPVEPTTSQQTTQNLLNEVDLHPFVPKRTPGQPTQGGVDTAINMVFNFNGSNFFINNASFVPPTVPVLLQILSGAQAAQDLLPSGSVYTLPVNKSIELTFPATANAPGAPHPFHLHGHAFAVVRSAGSTVYNYDNPVWRDVVSTGTPAAGDNVTIRFQTDNPGPWFLHCHIDFHLEAGFAVVFAEDPTDTSLANPVPKAWSDLCPTYDALSVDDQ
modifications: mat_peptide (1)..(499) Mature LacGL1 laccase (minus signal peptide)
For the molecule B1, in test [1] (LacGL1-CC1 at pH 4.6, 40° C.), the “improvement in glucose yields over CC1 at pH 5.1 and 50° C.” value was 66%; the “improvement in glucose yields over LacGL1-CC1 at pH 5.1 and 50° C.” value stood at 48%. For the same molecule, the “total glucose yield higher than CC2 alone” value in test [1] (LacGL1-Cellic CTec2 at pH 5.1, 50° C. vs CC2 alone at pH 4.6, 40° C.) turned out to be 27.5%. In addition, the “total glucose yield higher than CC2 alone” value in test [1] (LacGL1-Cellic CTec2 at pH 5.1, 50° C. vs CC2 alone under the same conditions) was 19%. The “enhancement of CC1 mediated-hydrolysis” value in test [1] (pH 4.6, 40° C.) turned out to be 30%. Further, in test [1] (pH 5.1, 50° C. vs pH 4.6, 40° C.), the “enhancement of LacGL1-CC2 catalyzed hydrolysis by higher pH and temperature” value came to 12%. Also, the “glucose release compared to GLlac1” value in test [2] was “the same”. The “glucose release compared to the other tested laccases” value in test [2] (p<0.05) is listed as “significantly enhanced”.

Source of the values: patent US9725702B2, “Laccase from ganoderma lucidum capable of enhancing enzymatic degradation of lignocellulolytic biomass” (DANMARKS TEKNISKE UNIVERSITET, priority 2012, dated 2017).
